The record followed here is the nanobody polyreactivity screen of Harvey et al. (2022).

A short description of this data set: yeast display, Sf9 membrane polyspecificity reagent, FACS + sequencing; frameworks hold sequencing errors. The essentials: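 Nanobodies came from a synthetic yeast display library in Saccharomyces cerevisiae BJ5465, induced with galactose for 36–48 hours and stained for 1 hour at 4 °C with 10% biotinylated, detergent-solubilized Sf9 membrane reagent. Cells were enriched on streptavidin microbeads and then FACS-sorted, with low and high (top ~1%) gates set on anti-HA fluorescence for expression and streptavidin fluorescence for reagent binding. Each polyreactivity label reflects the gate a clone came from. Genes were amplified by colony PCR, sequenced by MiSeq 2 × 250 and filtered by CDR length.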
In the case of “QVQLVESGGGLVQAGGSLRLSCAASGRIFYGYTMGWYREAPGIERELVASITIRGSRTYYADSVKGRFTISRDNAKNTVYLQMTSLKPEDTAVYYCAADFVPARTVHRYDYWGQGTQVTVSS”, the “polyreactivity (PSR sort gate)” value was “low polyreactivity”.

For the sequence “QVQLVEYVELLVQAVGILSLSCAASGLTIYYYIMGWYLHAPRKEREFLAAISNSGCRPYYADSVNGRFTISRDNAKNTDYLQMNSLIPEDTPVYYCAAQSRYGGKFLYWGQGTQVTVSS”, the “polyreactivity (PSR sort gate)” value is on record as “high polyreactivity”.

On to “QVQLVESGGGLDQAGGSLRLSCAASGSTFGVYAMGWYRQAPGKERELVAAISSSTGSTYYADSVKGRFTISRDNAKNTVYLQMNSLKPEDTAVYYCAAEYDGPYYSFYPEQRYYWGQGTQVTVSS”, for which the “polyreactivity (PSR sort gate)” value is recorded as “low polyreactivity”.

As for “QVQLVESGGGLVQAGGSLRLSCAASGYTFPSNAMGWYRQAPGKERELVAAISSGGRTNYADSVKGRFTISRDNAKNTVYLQMNSLKPEDTGVYYCNADGGPCYPRAYDYWGQGTQVTVSS”, the “polyreactivity (PSR sort gate)” value was “low polyreactivity”.

For the sequence “QVQLVESGGGLVQAGGSLRLSCSASGSTFGYYAMGWYRQAPGKERELVAAITRSGGSTFYADSVKGRFTISRDNAKNTVYLQMNSLKPEDTAVYYCAATYWPYRPGYYYWGQGTQVTVSS”, the “polyreactivity (PSR sort gate)” value is reported as “high polyreactivity”.

Consider “QVHLVESGGGLVLAGGSLRLSCAASGSTFIWNAMGWYRQAPGKERELVAAIRRGSSTNYADSVKGRFTISRDNAKNTVYLQMNSLYPEDTAVYYCAKKPVTTDVSSETFFLEMDYWGQGTQVTVSS”, for which the “polyreactivity (PSR sort gate)” value was “low polyreactivity”.

Take “QVQLVESGGGLVQAGGSLRLSCAASGRIFSPYAMGWYRQAPGKERELVAAITWSGTSTSYADSVKGRFTISRDNAKNTVYLQMNRLKPEDTAVYYCNAVYRSWDRYTFYWYVSNDYWGQGTQVTVSS”: the “polyreactivity (PSR sort gate)” value is reported as “low polyreactivity”.

Consider “QVQLVESGGGLVQAGGSLRLSCAASGFTILRYAMGWDRQAPGTERELVAAIDWSGGSTYYADSVKGRFTISRDNAKNTVYLQMNSLKPEDTAVYYCNARTINVPSRFNYWGQGTQVTVSS”, for which the “polyreactivity (PSR sort gate)” value is given as “low polyreactivity”.

Regarding “QVQLEESGGGLVQAGGSLRLSCAASGFTFYRYAMGWYRQAPGKERELVAAITWSGGSTYYADSVKGRFTISRDNAKNTVYLQMNSLKPEDTGVYYCNAAAYYPTNYGGYLFEYWGQGTQVTVSS”, the “polyreactivity (PSR sort gate)” value is given as “low polyreactivity”.

Take “QVQLVESGGGLVQAGGSLRLSCAASGRIFNYYAMGWYRQAHGKERELVAVITYSAGRTYYADSVKGRFTISRDNAKNTVYLQMNSLKPEDTAVYNCNADGWVSVSKHYYYWGQGTQVTVSS”: the “polyreactivity (PSR sort gate)” value is given as “low polyreactivity”.

Turning to “QVQLVESGGGLVQAGGSLRLSCAASGGTFSAYAMGWYRQAPGKERELVAAISYRGGRTYYADSVKGRFTISRDNAKNTVYLQMNSLKPEDTAVYYCNARRGSATHSVTARRGYWGQGTQVTVSS”, the “polyreactivity (PSR sort gate)” value is reported as “high polyreactivity”.

“QVQLVESGGGLVQAGGSLRLSCAASGFTFRKYAMGLYRQAPGKERELVASITSGGSTYYADSVKGRFTISRDNAKNTVYLQMNSLKPEDNAVYYCNAVKATLASGRLRGAYYYWGQGNQVTVSS”: the “polyreactivity (PSR sort gate)” value is recorded as “high polyreactivity”.

“QVQLVESGGGLVQAGGILRLSCAASGRIFAYYAMGWSRQAPGKERELVAAISGGGGSTYYADSVKGRFTISRDNAKNTVYLQMNSLKPEDTAVYYCAAKSSRYDYYYWGQGTQVTVSS”: the “polyreactivity (PSR sort gate)” value is given as “high polyreactivity”.

Regarding “QVQLVESGGGLVQAGGSLRLSCAASGFTFRYYAMGWYRQAPGKERELVAAISARGTSTYYADSVKGRFTISRDNAKITVYLQMNSLKPEDTAVYYCAARYGLYPARGYDYWGQGTQVSVSS”, the “polyreactivity (PSR sort gate)” value is on record as “high polyreactivity”.

In the case of “QVQLVESGGGLVQAGGSLRLSCAASGLIFYYYVKGWYRQAPGKERELVAAISVIGDSTYYADSVKGRFTISRDNAKNTVYLQMNSLKPEDTAVYYCNADPWRWDRESRYEYWGQGTQVSVSS”, the “polyreactivity (PSR sort gate)” value was “high polyreactivity”.

For the sequence “QVQLVESGGGLVQAGGSLRLSCAASGRTFDYYAMGWYRQAPGKERELVAAITLSAGRTYYADSVKGRFTISRDNAKNTVYLQMNSLKPEDTAVYYCAARFRRLQRFYYWGQGTQVTVSS”, the “polyreactivity (PSR sort gate)” value is on record as “high polyreactivity”.

Consider “QVQLVESGGGLVQAGGSLRLSCAASGSTFVGYFMGWYRQAPGKERELVAAITKIGGSTYYADSVKGSFTISRDNAKNNVYLQMNSLKPEDTAVYYCARTRSRWRYPIFYYWGQGTQVTVSS”, for which the “polyreactivity (PSR sort gate)” value is given as “high polyreactivity”.

Turning to “QDQLVESGGGLVQAGGSLRLSCAASGITFNAYVMGWYRQAPGKERELVAAISVSDDYTYYADSVKGRFTISRDNAKNTVYLQINSLKPEDTAVYYCAAEWWDVIAPYDYWGQGTQVTVSS”, the “polyreactivity (PSR sort gate)” value is on record as “low polyreactivity”.

As for “QVQLVESGGGLVQAGGSLRLSCAASGRLLGFNVMGWYRQAPGKERELVAAITTSGGSTYYADSVKGRFTISRDNAKNTVYLQMHSLKPEDTAVYYCAAVKVQITLLHGDDYWGQGTQVTVSS”, the “polyreactivity (PSR sort gate)” value is given as “high polyreactivity”.

“QVQLVESGGGLVQAGGSLRLSCAASGRIFSHNVMGWYRQAPGKERELVAAISWSSGSTYYADSVKGRFTISRDNAKNTVYLQMNSLKPEDTAVYYCNAATRPTGDYWGQGTQVTVSS”: the “polyreactivity (PSR sort gate)” value was “low polyreactivity”.

For “QVQLVESGGGLVQAGGSLRLSCAASGLIFKYNAMGWYRHAPGKERELVAAISTSGGSTYYADSVKGRFTISRDNAKNTVYLQMNSLKPEDNAVYFCNAVAGRPFRYYYWGQGTQVTVSS”, the “polyreactivity (PSR sort gate)” value was “high polyreactivity”.

Consider “QVQLVESGGGLVQAGGSLRLSCAASGRISSQYAMGWYRQAPGKERELVAAISTSGDRTYYADSVKGRFTISRDTAKNTVYLEMNSLKPEDTAVYYCAKDCPYTYGRDIYEYWGQGTQVTVSS”, for which the “polyreactivity (PSR sort gate)” value is listed as “low polyreactivity”.

In the case of “QVQLVESGGGLVQAGGSLRLSCAASGSIFFSNTMGWYRQAPGKERELVASIRETAGSTNYADSLKGRFTISRDYAKITVYLQMHSLKPEDTAVYYCAARYSPTRYHYGYWGQGTQVTVSS”, the “polyreactivity (PSR sort gate)” value was “low polyreactivity”.

Consider “QVQLVESGGGLVQAGGSLRISCAASGFIFTYYAMGWYRQAPGKERELVAAITKSGTSTYYADSVKGRFTISRDNAKNTVYLQMNSLKPEDTAVYYCNAVLWWDWEYDFYYWGQGTQVTVSS”, for which the “polyreactivity (PSR sort gate)” value is “high polyreactivity”.

Regarding “QVQLVESGGGLVQAGGSLRLSCAPSGYIFPEYVMGWYRQSPGKERELVAVITWDGTSTYADSVKGRFTISRDNAKNTVYLQMNSLIPVDTAVYYCAADTNYYVDTAGYGDGLDSWGQGTQVTVSS”, the “polyreactivity (PSR sort gate)” value is on record as “low polyreactivity”.

Take “QVQLVESGGGLVQAGGSLRLSCAASGSIFGKNVMGWYRQAPGKERELVAAISRSGGRTYYADSVKGRFTISRDNAKNTVYLQMNSLKPEDTAVYYCAADGQPIGQQTYDYWGQGTQVTVSS”: the “polyreactivity (PSR sort gate)” value is reported as “high polyreactivity”.

As to “QVQLVESGGGLVQAGGSLRLSCADSGSTFNSYAMGWYRQAPGKERELVAAITHRGSTYYADSVKGRFTISLDNAKNTVYLQMNSLKPEDTAVDYCNVRRIGNGRRVDYWGQGTQVTVSS”, the “polyreactivity (PSR sort gate)” value is reported as “high polyreactivity”.

Regarding “QVQLVESGGGLVQAGGSLRLSCAASGRTFYFYVMGWYRQAPGKERELVASITSGGSTNYADSVKGRFTISRDNAKNTVYLQMNSLKPEDTAVYYCAAALPASTSGTQPYDYWGQGTQVTVSS”, the “polyreactivity (PSR sort gate)” value is “low polyreactivity”.

Regarding “QVQLVESGGGLVQAGGSLRLSCAASGRIFTGNAMGWYRQAPGKERELVAAITGRGGNTYYADSGKGRFTISRDNAKNTVYLLMNSLKPEDTAGYYGAKVFFHTPIVPEYDYWGQGTHVTVSS”, the “polyreactivity (PSR sort gate)” value was “low polyreactivity”.

Turning to “QVQLVESGGGLVQAGGSLRLSCDASGSISVVNMGWYRQAPGKERELVASNTSSGSTTYADSVKGRFTISRDKAKNTVYLQMNRLKPEDTAVYYCAADVGTDYTYQHPAGAAYDYCGQGTQVTVSS”, the “polyreactivity (PSR sort gate)” value is on record as “low polyreactivity”.
